Test results as given in patent publication US12060408B2, “Screening assays, modulators and modulation of activation of Receptor for Advanced Glycation End-products (RAGE)” (Monash University, priority 2017, dated 2024).
“Also recorded” adds a separate entry of the source. Ends that are not written are not given here.

Legend:
RAGE = target: T1, RAGE (Mus musculus, UniProt Q62151); experiment: Ang II-induced ICAM-1 gene expression in murine SVEC; type: cell-based; conditions: murine SVEC endogenously replete in RAGE; transfected constructs; 1 μM Ang II; FIG. 12A, 12B, 12D
T1 construct: in murine SVEC that are endogenously replete in RAGE expression; host or cells: Svec4-10 mouse endothelial cells
T1 sequence (Q62151 23-402): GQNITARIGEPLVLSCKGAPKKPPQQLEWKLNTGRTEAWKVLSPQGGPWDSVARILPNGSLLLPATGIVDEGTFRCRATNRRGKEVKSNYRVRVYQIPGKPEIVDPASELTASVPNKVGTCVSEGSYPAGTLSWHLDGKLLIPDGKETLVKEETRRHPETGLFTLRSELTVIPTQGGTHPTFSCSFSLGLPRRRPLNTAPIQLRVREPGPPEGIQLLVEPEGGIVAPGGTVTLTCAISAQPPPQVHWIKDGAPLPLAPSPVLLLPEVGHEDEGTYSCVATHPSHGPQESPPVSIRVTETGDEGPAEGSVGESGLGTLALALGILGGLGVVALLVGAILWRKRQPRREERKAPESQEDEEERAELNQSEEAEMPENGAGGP
Description: To explore the potential for RAGE constructs to inhibit transactivation of endogenous RAGE, additional experiments were conducted in immortalized mouse endothelial cells (Svec4-10, ATCC) cultured in 10% FBS/DMEM with 25 mM glucose were used. SVEC were transfected with truncated RAGE constructs using Lipofectamine 2000 (Invitrogen) as per manufacturer's instructions, or treated with RAGE oligopeptides (280 μM). Cells were allowed to recover in media containing 10% FBS for 16 hours prior to treatment with 1 μM Ang II.

[1] = tested on: RAGE ligand-independent activation of RAGE by activated AT1R; experiment: Ang II-induced NFκB activation (p65 gene expression, SEAP reporter) in AT1R-CHO cells with RAGE constructs; type: cell-based, human; conditions: construct expressed in AT1R-CHO cells, no wild-type RAGE
Description: (§1) Generation of Transgenic Chinese Hamster Ovary Cells
(§2) 100 ng of AT1R-Rluc8 construct was transfected into CHO cells using Lipofectamine 2000 (Thermo). Stable transfectants were selected using G418. AT1R—CHO were then transiently transfected with RAGE constructs using Lipofectamine 2000 (Invitrogen) and incubated for 16 h. The Homo sapiens AGER transcript variant 1 coding sequence (NM_001136) was synthesised and cloned between the NheI and XbaI sites of pCIneo (Promega) to generate the vector pCIneo-RAGE. This plasmid was then used to generate a library of mutant AGER clones (NP_001127). Primers 1-RAGE-SP-5′ and mCherry-XhoI-NotI-3′ were used to amplify the coding sequence of mCherry from the vector pmCherry-C1. The resultant PCR product was then used as template for a second PCR using primers 2-RAGE-SP-5′ and mCherry-XhoI-NotI-3′. The PCR product generated was digested with NheI and NotI and inserted between the NheI and NotI sites of pCIneo to generate pCIneo-SP-mCherry. The sequence of the insert was confirmed by DNA sequencing (Micromon, Monash University). […]
(§3) Cellular Expression of Pro-Inflammatory Markers and Mediators by Quantitative Real-Time PCR
(§4) After 2 hours of exposure to Ang II (1 μM) or the RAGE ligand, S100A8/A9 (5 ng/ml) cells were placed in Trizol, mRNA extracted and cDNA synthesized. Changes in the gene expression of the NFκB subunit, p65 (RelA) or NFκB-activated target genes (e.g ICAM-1, VCAM-1) were estimated by quantitative real-time RT-PCR, performed using the TaqMan system based on real-time detection of accumulated fluorescence (ABI Prism 7700, Perkin-Elmer Inc, PE Biosystems, Foster City, CA, USA). Gene expression was normalized to 18S mRNA and reported as fold change compared to the level of expression in untreated control mice/cells, which were given an arbitrary value of 1.
Oligopeptides (Cherry-TAT (control), mCherry-TAT-RAGE362-404 and mCherry-S391A-TAT-RAGE362-404 were generated by transformation of the Escherichia coli strain ClearColi BL21 (DE3; Lucigen). A single transformed colony was inoculated into 50 ml 2YT medium containing 100 μg/ml ampicillin and the culture was grown overnight at 37° C. with shaking at 250 rev/min. 10 ml overnight culture was used to inoculate 1 litre 2YT medium containing 100 μg/ml ampicillin and the culture was grown at 37° C. with shaking at 250 rev/min. When the cultures reached an OD600 of 0.8, the temperature was shifted to 15° C. for 30 min after which protein expression was induced by the addition of 1 mM isopropyl β-D-1-thiogalacto-pyranoside (IPTG). Following the addition of IPTG the cultures were grown for ˜16 h at 15° C. with shaking at 250 rev/min. Cells were harvested by centrifugation (3500 g, 4° C., 20 min) and resuspended in ice-cold lysis buffer (50 mM Tris pH 7.4, 300 mM NaCl, 10 mM imidazole and 5 mM beta-mercaptoethanol). The resuspended cells were sonicated and insoluble material was pelleted by centrifugation (13 000 g, 4° C., 30 min). The supernatant was filtered (0.2 μm) and applied onto a gravity-flow column with a 1 ml Ni-NTA Agarose resin bed volume (Qiagen) pre-equilibrated with lysis buffer. After the supernatant was passed over the resin, the column was washed with 100 ml of wash buffer (20 mM imidazole, 50 mM Tris pH 7.4, 150 mM NaCl, 5 mM beta-mercaptoethanol). His-tagged TAT-mCherry and TAT-mCherry-RAGE peptides were eluted from the resin using elution buffer (250 mM imidazole, 50 mM Tris pH 7.4, 150 mM NaCl, 5 mM beta-mercaptoethanol). […]

[2] = tested on: primary murine aortic endothelial cells (PMAEC); experiment: Expression of pro-inflammatory markers by real-time RT-PCR in primary murine aortic endothelial cells; type: cell-based, mouse
Description: Primary aortic endothelial cells (PMAEC) were isolated from the aortae of (wild-type) C57bl6 mice and AGER KO mice and cultured in Dulbecco's modified Eagle's medium (DMEM)/F12 endothelial cell growth supplement (ECGS) supplemented media. Chinese Hamster Ovary (CHO) cells were cultured using F12 media (10% FCS with 2 mM glutamine). Human microvascular endothelial cells (HMEC) were cultured in MCDB 131 medium (10% FCS with 10 mM glutamine, EGF and hydrocortisone).
as §3, §4
Selective Silencing of Gene Expression Using siRNA
PMAEC from C57b/6 mice were also transfected with siRNA to RAGE (2 nM) Ambion, ID:s62119), p65 (RelA) (10 nM; Ambion, ID:s72857), MyD88 (10 nM; Ambion. ID:s201719), PKCζ (10 nM; Ambion, ID:s71716), IQGAP-1, Ambion, ID:s78119), Diaph1 (10 nM; sense5′-[…], antisense 3′-[…]; Invitrogen) or scrambled control #1 (2 nM or 10 nM; Ambion) using Lipofectamine RNAiMAX (Invitrogen) as per manufacturer's instructions. Cells were allowed to recover in media containing 10% FBS for 16 hours prior to treatment with 1 μM Ang II or 5 ng/ml of the RAGE ligand, S100A8/A9, as a signalling control.

[3] = tested on: RAGE ligand-dependent activation of RAGE; experiment: S100A8/A9-induced NFκB activation (p65 gene expression) in CHO cells expressing RAGE constructs; type: cell-based, human; conditions: AT1R-CHO cells also expressing full length RAGE
Description: as §1, §2, §3, §4
To measure the induction of NFκB activity by 1 μM Ang II, or 5 ng/ml of the RAGE-ligand S100A8/A9 as a signalling control, AT1R—CHO cells were transfected with 0.4 μg of plasmids encoding NFκB-SEAP or β-galactosidase (β-Gal) using Lipofectamine 2000 (Invitrogen) as per manufacturer's instructions. After 24 hours, cells transfected with each plasmid combination were then treated with Ang II (1 μM) or left untreated and incubated for 4 hours before cell supernatants and cell lysates were collected. Cell supernatants were analysed using a chemiluminescent SEAP reporter gene assay (Roche Applied Science) to detect SEAP production after treatment. To control for transfection efficiency, cell lysates were assayed for β-Gal using a commercially available kit (Promega).

Substance	induction of ICAM-1 gene expression by Ang II (RAGE)	other results
E382A-RAGE370-390: alanine mutant of RAGE370-390 (GEERKAPENQEEAEERAELNQ; cytosolic tail peptide; UniProt Q15109 370-390, looked up, variant E382A)	continue to inhibit	
S391A-RAGE22-404: full length RAGE construct with S391 mutated to alanine	able to prevent	
RAGE379-404: N-truncated RAGE construct, functional substitute of wild type RAGE (QEEEEERAELNQSEEPEAGESSTGGP; UniProt Q15109 379-404, looked up, fragment)		ability of the RAGE construct to be activated and mediate pro-inflammatory signalling in response to Ang II [1]: does not result in a loss of function; also recorded: able to be activated
RAGE385-404: N-truncated RAGE construct eliminating both 380 and 384 (RAELNQSEEPEAGESSTGGP; UniProt Q15109 385-404, looked up, fragment)		ability of the RAGE construct to be activated and mediate pro-inflammatory signalling in response to Ang II [1]: loss of the modulatory actions
Q390K-RAGE370-390: glutamine-to-lysine mutant of RAGE370-390 (GEERKAPENQEEEEERAELNK; cytosolic tail peptide; UniProt Q15109 370-390, looked up, variant Q390K)	retain the greatest inhibitory effect	
soluble RAGE22-331: decoy receptor with ligand-binding affinity [reference compound]		inhibition of Ang II (1 μM)-induced ICAM-1, VCAM-1 and MCP-1 ([2]; PMAEC from wild type mice): do not inhibit; inhibition of S100A8/A9-induced ICAM-1 ([2]; PMAEC from wild type mice): inhibit; inhibition of S100A8/A9-induced p65 expression [3]: inhibit
Q379K-RAGE370-390: glutamine-to-lysine mutant of RAGE370-390 (GEERKAPENKEEEEERAELNQ; cytoplasmic region peptide; UniProt Q15109 370-390, looked up, variant Q379K)	retain the greatest inhibitory effect	
m-Cherry-RAGE370-395: C-truncated S391X-RAGE mutant fused to mCherry (GEERKAPENQEEEEERAELNQSEEPE; also: mCherry fusion, not in chain; UniProt Q15109 370-395, looked up, fragment)	prevents	
E380A-RAGE370-390: alanine mutant of RAGE370-390 (GEERKAPENQAEEEERAELNQ; cytosolic tail peptide; UniProt Q15109 370-390, looked up, variant E380A)	continue to inhibit	
RAGE22-404: full length wild-type RAGE construct	does not affect	
mCherry-S391A-RAGE362-404: N-truncated mCherry-RAGE cytosolic tail construct with S391A (LWQRRQRRGEERKAPENQEEEEERAELNQAEEPEAGESSTGGP; also: mCherry fusion; UniProt Q15109 362-404, looked up, fragment S391A)	able to prevent	
Q379A-RAGE370-390: glutamine-to-alanine mutant of RAGE370-390 (GEERKAPENAEEEEERAELNQ; cytosolic tail peptide; UniProt Q15109 370-390, looked up, variant Q379A)	lost	
Q390A-RAGE370-390: glutamine-to-alanine mutant of RAGE370-390 (GEERKAPENQEEEEERAELNA; cytoplasmic region peptide; UniProt Q15109 370-390, looked up, variant Q390A)	lost	
TNFα		canonical and non-canonical signalling downstream of NFκB (CXCL2, CXCL12) ([2]; PMAEC from C57bl6 mice): selectively induce canonical signalling
E384A-RAGE370-390: alanine mutant of RAGE370-390 (GEERKAPENQEEEEARAELNQ; cytosolic tail peptide; UniProt Q15109 370-390, looked up, variant E384A)	continue to inhibit	
